Experimental data as given in patent US20170305975A1 (PROCLARA BIOSCIENCES, published 2017).
Like-named read-outs stand apart in the source and are kept apart here.

How the values were obtained:
[1] = target: tau fibers (ftau); assay: SPR, Construct 4 on ftau
[2] = target: T1, amyloid-β 1-42 fibers (fAβ42) (human, UniProt P05067 672-713); assay: SPR on Aβ fibrils, 25° C.
T1 construct: domain: amyloid-β 1-42; also called Aβ fibrils; Aβ fibers

[3] = target: T1, amyloid-β 1-42 fibers (fAβ42); assay: cell-based or functional assay
[4] = target: T1, amyloid-β 1-42 fibers (fAβ42); assay: SPR, 4 µM rs-g3p(N1N2) on Aβ fibrils
[5] = target: T1, amyloid-β 1-42 fibers (fAβ42); assay: SPR on Aβ fibrils, analyte preheated at 37° C.
[6] = target: T1, amyloid-β 1-42 fibers (fAβ42); assay: SPR, Aβ42 fibers immobilized on a CM3 surface, about 2 µM analyte at 5 µl/min
[7] = target: T1, amyloid-β 1-42 fibers (fAβ42); assay: competition with labeled M13 for binding to Aβ, 45 minutes at 37 °C; phage with or without pre-activation at 50 °C for 1.5 hours
[8] = target: T1, amyloid-β 1-42 fibers (fAβ42)
[9] = target: T1, amyloid-β 1-42 fibers (fAβ42); assay: SPR on Aβ fibrils
[10] = target: T1, amyloid-β 1-42 fibers (fAβ42); assay: SPR, 10^14 phage/mL over immobilized fAβ
[11] = target: T1, amyloid-β 1-42 fibers (fAβ42); assay: SPR, calculated from the data of FIG. 3A
[12] = target: T1, amyloid-β 1-42 fibers (fAβ42); assay: competition with M13-Alexa488 for fAβ, fiber sedimentation assay

T1 sequence (P05067 672-713 limits assumed): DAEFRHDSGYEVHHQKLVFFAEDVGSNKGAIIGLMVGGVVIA

B1: rs-g3p(N1N2)-hIgG4-Fc fusion protein (Construct 4) (Fc fusion)
chain: MAETVESCLAKPHTENSFTNVWKDDKTLDRYANYEGCLWNATGVVVCTGDETQCYGTWVPIGLAIPENEGGGSEGGGSEGGGSEGGGTKPPEYGDTPIPGYTYINPLDGTYPPGTEQNPANPNPSLEESQPLNTFMFQNNRFRNRQGALTVYTGTVTQGTDPVKTYYQYTPVSSKAMYDAYWNGKFRDCAFHSGFNEDPFVCEYQGQSSDLPQPPVNAGGGSGGGSGGGSEGGGSEGGGSEGGGSEGGGSGGGSGSGAMVRSPPCPSCPAPEFLGGPSVFLFPPKPKDTLMISRTPEVTCVVVDVSQEDPEVQFNWYVDGVEVHNAKTKPREEQFNSTYRVVSVLTVLHQDWLNGKEYKCKVSNKGLPSSIEKTISKAKGQPREPQVYTLPPSQEEMTKNQVSLTCLVKGFYPSDIAVEWESNGQPENNYKTTPPVLDSDGSFFLYSRLTVDKSRWQEGNVFSCSVMHEALHNHYTQKSLSLSPGK
notes: also called rs-g3p(N1N2)-Ig fusion; bivalent rs-g3p(N1N2)-Ig fusion
[1]
  Kd: 62.9 nM
[2]
  Kd: 7.32 nM
  koff: 0.000128 s⁻¹
  kon: 17500 M⁻¹ s⁻¹

B2: rs-g3p(N1N2)-hIgG4-Fc fusion protein (Construct 5) (Fc fusion)
chain: MAETVESCLAKPHTENSFTNVWKDDKTLDRYANYEGCLWNATGVVVCTGDETQCYGTWVPIGLAIPENEGGGSEGGGSEGGGSEGGGTKPPEYGDTPIPGYTYINPLDGTYPPGTEQNPANPNPSLEESQPLNTFMFQNNRFRNRQGALTVYTGTFTQGTDPVKTYYQYTPVSSKAMYDAYWNGKFRDCAFHSGFNEDPFVCEYQGQSSDLPQPPVNAGGGSGGGSGGGSEGGGSEGGGSEGGGSEGGGSGGGSGSGAMVRSPPCPSCPAPEFLGGPSVFLFPPKPKDTLMISRTPEVTCVVVDVSQEDPEVQFNWYVDGVEVHNAKTKPREEQFNSTYRVVSVLTVLHQDWLNGKEYKCKVSNKGLPSSIEKTISKAKGQPREPQVYTLPPSQEEMTKNQVSLTCLVKGFYPSDIAVEWESNGQPENNYKTTPPVLDSDGSFFLYSRLTVDKSRWQEGNVFSCSVMHEALHNHYTQKSLSLSPGK
[2]
  Kd: 10.9 nM
  koff: 0.000166 s⁻¹
  kon: 15200 M⁻¹ s⁻¹

B3: recombinant soluble N1N2 fragment of g3p, rs-g3p(N1N2) (Construct 3) (other)
chain: MAETVESCLAKSHTENSFTNVWKDDKTLDRYANYEGCLWNATGVVVCTGDETQCYGTWVPIGLAIPENEGGGSEGGGSEGGGSEGGGTKPPEYGDTPIPGYTYINPLDGTYPPGTEQNPANPNPSLEESQPLNTFMFQNNRFRNRQGALTVYTGTVTQGTDPVKTYYQYTPVSSKAMYDAYWNGKFRDCAFHSGFNEDLFVCEYQGQSSDLPQPPVNAPSGHHHHHH
notes: also called monomer; monomeric g3p
[3]
  IC50 of inhibition of Aβ42 fiber formation, ThT fluorescence (10 µM Aβ42 monomers, 37° C., 3 days): ~20 nM
[2]
  Kd: 150 nM
  koff: 0.00024 s⁻¹
  kon: 1500 M⁻¹ s⁻¹
[4]
  Kd: ~160 nM
[5]
  Kd: 50 nM
  koff: 0.0002 s⁻¹
  kon: 4100 M⁻¹ s⁻¹
[6]
  Kd: ~150 nM

B4: phage fd (wild type) (other)
chain: AETVESCLAKPHTENSFTNVWKDDKTLDRYANYEGCLWNATGVVVCTGDETQCYGTWVPIGLAIPENEGGGSEGGGSEGGGSEGGGTKPPEYGDTPIPGYTYINPLDGTYPPGTEQNPANPNPSLEESQPLNTFMFQNNRFRNRQGALTVYTGTVTQGTDPVKTYYQYTPVSSKAMYDAYWNGKFRDCAFHSGFNEDPFVCEYQGQSSDLPQPPVNAGGGSGGGSGGGSEGGGSEGGGSEGGGSEGGGSGGGSGSGDFDYEKMANANKGAMTENADENALQSDAKGKLDSVATDYGAAIDGFIGDVSGLANGNGATGDFAGSNSQMAQVGDGDNSPLMNNFRQYLPSLPQSVECRPYVFGAGKPYEFSIDCDKINLFRGVFAFLLYVATFMYVFSTFANILRNKES
[7]
  binding result: binds

B5: M13 phage (Construct 1) (other)
chain: AETVESCLAKPHTENSFTNVWKDDKTLDRYANYEGCLWNATGVVVCTGDETQCYGTWVPIGLAIPENEGGGSEGGGSEGGGSEGGGTKPPEYGDTPIPGYTYINPLDGTYPPGTEQNPANPNPSLEESQPLNTFMFQNNRFRNRQGALTVYTGTVTQGTDPVKTYYQYTPVSSKAMYDAYWNGKFRDCAFHSGFNEDPFVCEYQGQSSDLPQPPVNAGGGSGGGSGGGSEGGGSEGGGSEGGGSEGGGSGGGSGSGDFDYEKMANANKGAMTENADENALQSDAKGKLDSVATDYGAAIDGFIGDVSGLANGNGATGDFAGSNSQMAQVGDGDNSPLMNNFRQYLPSLPQSVECRPFVFGAGKPYEFSIDCDKINLFRGVFAFLLYVATFMYVFSTFANILRNKES
[8]
  Kd: ~7 nM
[9]
  Kd: 3.59 nM
  koff: 9.2e-06 s⁻¹
  kon: 2600 M⁻¹ s⁻¹
[10]
  Kd: ~4 nM

B6: M13 phage (construct not stated) (other)
chain: AETVESCLAKPHTENSFTNVWKDDKTLDRYANYEGCLWNATGVVVCTGDETQCYGTWVPIGLAIPENEGGGSEGGGSEGGGSEGGGTKPPEYGDTPIPGYTYINPLDGTYPPGTEQNPANPNPSLEESQPLNTFMFQNNRFRNRQGALTVYTGTVTQGTDPVKTYYQYTPVSSKAMYDAYWNGKFRDCAFHSGFNEDPFVCEYQGQSSDLPQPPVNAGGGSGGGSGGGSEGGGSEGGGSEGGGSEGGGSGGGSGSGDFDYEKMANANKGAMTENADENALQSDAKGKLDSVATDYGAAIDGFIGDVSGLANGNGATGDFAGSNSQMAQVGDGDNSPLMNNFRQYLPSLPQSVECRPFVFSAGKPYEFSIDCDKINLFRGVFAFLLYVATFMYVFSTFANILRNKES
notes: also called wild type M13; labeled M13
[11]
  Kd: 3.59 nM

B7: If1N1N2 g3p (without Fc domain) (other)
chain: ATTDAECLSKPAFDGTLSNVWKEGDSRYANFENCIYELSGIGIGYDNDTSWNGHWTPVRAADGSGNGGDDNSSGGGSNGDSGNNSTPDTVTPGQTVNLPSDLSTLSIPANVVKSDSIGSQFSLYTNASCTMCSGYYLSNNADSIAIANITETVKADYNQPDMWFEQTDSDGNHVKILQNSYKAVSYNVESKQSDVNNPTYINYSYSVNVKQVSYDTSNVCIMNWETFQNKCDASRAVLITDTVTPSYSRNITIQSNINYQGSNGSGGSGGSGGSG
[12]
  fold better binding than M13 N1N2 g3p: ~4 fold
